# Measurements published in IntAct's records for PubMed 28891236.
# B1: Adhesion G protein-coupled receptor B2 (Homo sapiens), O60241 (parent)
# chain: MENTGWMGKGHRMTPACPLLLSVILSLRLATAFDPAPSACSALASGVLYGAFSLQDLFPTIASGCSWTLENPDPTKYSLYLRFNRQEQVCAHFAPRLLPLDHYLVNFTCLRPSPEEAVAQAESEVGRPEEEEAEAAAGLELCSGSGPFTFLHFDKNFVQLCLSAEPSEAPRLLAPAALAFRFVEVLLINNNNSSQFTCGVLCRWSEECGRAAGRACGFAQPGCSCPGEAGAGSTTTTSPGPPAAHTLSNALVPGGPAPPAEADLHSGSSNDLFTTEMRYGEEPEEEPKVKTQWPRSADEPGLYMAQTGDPAAEEWSPWSVCSLTCGQGLQVRTRSCVSSPYGTLCSGPLRETRPCNNSATCPVHGVWEEWGSWSLCSRSCGRGSRSRMRTCVPPQHGGKACEGPELQTKLCSMAACPVEGQWLEWGPWGPCSTSCANGTQQRSRKCSVAGPAWATCTGALTDTRECSNLECPATDSKWGPWNAWSLCSKTCDTGWQRRFRMCQATGTQGYPCEGTGEEVKPCSEKRCPAFHEMCRDEYVMLMTWKKAAAGEIIYNKCPPNASGSASRRCLLSAQGVAYWGLPSFARCISHEYRYLYLSLREHLAKGQRMLAGEGMSQVVRSLQELLARRTYYSGDLLFSVDILRNVTDTFKRATYVPSADDVQRFFQVVSFMVDAENKEKWDDAQQVSPGSVHLLRVVEDFIHLVGDALKAFQSSLIVTDNLVISIQREPVSAVSSDITFPMRGRRGMKDWVRHSEDRLFLPKEVLSLSSPGKPATSGAAGSPGRGRGPGTVPPGPGHSHQRLLPADPDESSYFVIGAVLYRTLGLILPPPRPPLAVTSRVMTVTVRPPTQPPAEPLITVELSYIINGTTDPHCASWDYSRADASSGDWDTENCQTLETQAAHTRCQCQHLSTFAVLAQPPKDLTLELAGSPSVPLVIGCAVSCMALLTLLAIYAAFWRFIKSERSIILLNFCLSILASNILILVGQSRVLSKGVCTMTAAFLHFFFLSSFCWVLTEAWQSYLAVIGRMRTRLVRKRFLCLGWGLPALVVAVSVGFTRTKGYGTSSYCWLSLEGGLLYAFVGPAAVIVLVNMLIGIIVFNKLMARDGISDKSKKQRAGSERCPWASLLLPCSACGAVPSPLLSSASARNAMASLWSSCVVLPLLALTWMSAVLAMTDRRSVLFQALFAVFNSAQGFVITAVHCFLRREVQDVVKCQMGVCRADESEDSPDSCKNGQLQILSDFEKDVDLACQTVLFKEVNTCNPSTITGTLSRLSLDEDEEPKSCLVGPEGSLSFSPLPGNILVPMAASPGLGEPPPPQEANPVYMCGEGGLRQLDLTWLRPTEPGSEGDYMVLPRRTLSLQPGGGGGGGEDAPRARPEGTPRRAAKTVAHTEGYPSFLSVDHSGLGLGPAYGSLQNPYGMTFQPPPPTPSARQVPEPGERSRTMPRTVPGSTMKMGSLERKKLRYSDLDFEKVMHTRKRHSELYHELNQKFHTFDRYRSQSTAKREKRWSVSSGGAAERSVCTDKPSPGERPSLSQHRRHQSWSTFKSMTLGSLPPKPRERLTLHRAAAWEPTEPPDGDFQTEV
# Variants of: B1
# Settings: with gnaz_human GNAZ
row,Variant,effect of a mutation on the interaction
1,R1465W,with no effect

# Variants of: B1
# Settings: with gnai1_human GNAI1, P63096
# gnai1_human GNAI1, P63096, sequence (P63096 whole entry): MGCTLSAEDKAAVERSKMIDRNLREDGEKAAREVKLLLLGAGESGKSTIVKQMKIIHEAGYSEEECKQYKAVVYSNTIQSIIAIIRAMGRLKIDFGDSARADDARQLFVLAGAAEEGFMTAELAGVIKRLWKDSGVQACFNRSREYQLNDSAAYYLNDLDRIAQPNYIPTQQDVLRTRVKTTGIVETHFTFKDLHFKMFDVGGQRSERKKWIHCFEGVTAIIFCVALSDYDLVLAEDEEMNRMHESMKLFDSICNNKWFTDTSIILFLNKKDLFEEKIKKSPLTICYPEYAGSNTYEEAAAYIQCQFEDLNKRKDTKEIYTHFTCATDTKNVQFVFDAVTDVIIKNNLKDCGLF
row,Variant,effect of a mutation on the interaction
1,R1465W,causing an interaction

# Variants of: B1
# Settings: with arrb2_rat Arrb2, P29067
# arrb2_rat Arrb2, P29067, sequence (P29067 whole entry): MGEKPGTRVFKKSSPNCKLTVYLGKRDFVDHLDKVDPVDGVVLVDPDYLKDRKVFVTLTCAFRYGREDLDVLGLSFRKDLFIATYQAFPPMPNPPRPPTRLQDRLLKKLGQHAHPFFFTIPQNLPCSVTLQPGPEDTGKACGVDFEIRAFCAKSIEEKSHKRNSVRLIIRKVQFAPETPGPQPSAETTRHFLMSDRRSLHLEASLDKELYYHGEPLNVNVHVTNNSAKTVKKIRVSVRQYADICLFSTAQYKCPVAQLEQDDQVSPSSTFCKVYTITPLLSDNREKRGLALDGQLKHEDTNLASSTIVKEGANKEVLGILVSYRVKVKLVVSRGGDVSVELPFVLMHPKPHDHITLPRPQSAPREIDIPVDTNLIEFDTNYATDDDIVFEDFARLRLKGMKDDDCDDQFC
row,Variant,effect of a mutation on the interaction
1,R1465W,with no effect

# Variants of: B1
# Settings: with sh3g2_human SH3GL2, Q99962
# sh3g2_human SH3GL2, Q99962, sequence (Q99962 whole entry): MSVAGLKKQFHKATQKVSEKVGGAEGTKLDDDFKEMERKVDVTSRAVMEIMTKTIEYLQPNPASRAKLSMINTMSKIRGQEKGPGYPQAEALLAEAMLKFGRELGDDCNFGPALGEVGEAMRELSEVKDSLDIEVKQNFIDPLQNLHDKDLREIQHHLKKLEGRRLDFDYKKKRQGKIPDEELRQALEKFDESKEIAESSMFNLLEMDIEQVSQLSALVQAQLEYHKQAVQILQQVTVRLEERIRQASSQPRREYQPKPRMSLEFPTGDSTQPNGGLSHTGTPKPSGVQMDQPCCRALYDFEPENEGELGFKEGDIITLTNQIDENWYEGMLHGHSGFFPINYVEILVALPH
row,Variant,effect of a mutation on the interaction
1,R1465W,disrupting interaction strength
